Reference: publication PMC10700544, “Acetylation regulates the oligomerization state and activity of RNase J, the Helicobacter pylori major ribonuclease” (Nature Communications, 2023)

Molecular target: the molecule itself
Test: crystal structure; crystals from 0.1 M HEPES pH 7.5, 25% wt/v polyethylene glycol 1000; space group P4(1)22; one monomer in the asymmetric unit, tetramer by crystal symmetry

B1: RNase J residues 139–691 (H. pylori strain 26695) with a C-terminal hexa-histidine tag (domain or fragment, Helicobacter pylori strain 26695, UniProt P56185 137-689, looked up)
chain: SKASVKITPLGGLGEIGGNMMVIETPKSAIVIDAGMSFPKEGLFGVDILIPDFSYLHQIKDKIAGIIITHAHEDHIGATPYLFKELQFPLYGTPLSLGLIGSKFDEHGLKKYRSYFKIVEKRCPISVGEFIIEWIHITHSIIDSSALAIQTKAGTIIHTGDFKIDHTPVDNLPTDLYRLAHYGEKGVMLLLSDSTNSHKSGTTPSESTIAPAFDTLFKEAQGRVIMSTFSSNIHRVYQAIQYGIKYNRKIAVIGRSMEKNLDIARELGYIHLPYQSFIEANEVAKYPDNEILIVTTGSQGETMSALYRMATDEHRHISIKPNDLVIISAKAIPGNEASVSAVLNFLIKKEAKVAYQEFDNIHVSGHAAQEEQKLMLRLIKPKFFLPVHGEYNHVARHKQTAISCGVPEKNIYLMEDGDQVEVGPAFIKKVGTIKSGKSYVDNQSNLSIDTSIVQQREEVASAGVFVATIFVNKNKQALLESSQFSSLGLVGFKDEKPLIKEIQGGLEVLLKSSNAEILNNPKKLEDHTRNFIRKALFKKFRKYPAIICHAHSF
notes: the results say 137–691); One monomer in the asymmetric unit; the tetramer (dimer-of-dimers) is generated by crystal symmetry; The CTD (587–691) is poorly ordered in the crystal; also called RNase J 139–691; C1hRSEj; source: E. coli, co-expressed with RhpA 21–465, purified (HiTrap Ni column, HALO resin flow-through, S200 SEC)
  stoichiometry N: 4
